T1: PUF4 RNA-binding domain (Saccharomyces cerevisiae, UniProt P25339 537-888)
T1 sequence: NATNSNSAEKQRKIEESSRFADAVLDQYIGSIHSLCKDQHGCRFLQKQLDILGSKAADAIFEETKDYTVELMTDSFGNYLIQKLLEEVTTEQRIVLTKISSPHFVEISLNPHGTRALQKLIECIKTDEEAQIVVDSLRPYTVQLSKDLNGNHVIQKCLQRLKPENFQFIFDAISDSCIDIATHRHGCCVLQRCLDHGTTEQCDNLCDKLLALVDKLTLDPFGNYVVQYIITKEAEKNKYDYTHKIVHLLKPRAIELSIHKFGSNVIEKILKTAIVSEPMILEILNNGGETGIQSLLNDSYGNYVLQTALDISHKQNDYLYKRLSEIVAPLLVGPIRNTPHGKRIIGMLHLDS

The values below come from PMC9352680, “A comprehensive thermodynamic model for RNA binding by the Saccharomyces cerevisiae Pumilio protein PUF4”.

For orientation: Kd means the free concentration of one partner at which half of the binding sites on the other are occupied at equilibrium, for simple one-to-one binding. A lower Kd goes with a tighter complex.

The series addresses T1, PUF4 RNA-binding domain. As to the kind of experiment: Mg; RNA-MaP; 20 mM Na-HEPES pH 7.4, 30 mM KOAc, 0.75 mM MgCl2, 0.1% Tween-20, 5% glycerol, 0.1 mg/mL BSA, 2 mM DTT; 25 C; 0.0125-409.6 nM protein. Particulars: tags: N-His6-TEV cleaved; C-SNAP kept, Cy3B-labelled; label: tethered on chip by stalled RNA polymerase.
As for UCUCUUUGUAAUAUAUUCUCUU (ssRNA) [Ic_S1_P5E.1_K5.1_C5.1_H5.1_A5.1_[T5A]_F5.1_[T9A]_[A10T]_T5.1], the Kd was 2.21 nM.

UCUCUUUGUACUCCCAUCUCUU (ssRNA) [Ic_S1_P5E.1_K5.1_C5.1_H5.1_A5.1_[T5C]_[A7C]_F5.1_[T8C]_[T9C]_T5.1] gave an equilibrium dissociation constant (Kd) of 1300 nM. For UCUCUUUGUAUUUAAUUCUCUU (ssRNA) [Ic_S1_P5E.1_K5.1_C5.1_H5.1_A5.1_[A7T]_F5.1_[T8A]_[T9A]_[A10T]_T5.1] the value was 46.2 nM; for UCUCUUUGUAUACUACUCUCUU (ssRNA) [Ic_S1_P5E.1_K5.1_C5.1_H5.1_A5.1_[T6A]_[A7C]_F5.1_[T9A]_[A10C]_T5.1], 2.89 nM; for UCUCUUUGUAAUACUUUCUCUU (ssRNA) [Ic_S1_P5E.1_K5.1_C5.1_H5.1_A5.1_[T5A]_F5.1_[T8C]_[A10T]_T5.1], 212 nM.

UCUCUUUGUAAUUGCCUCUCUU (ssRNA) [Ic_S1_P5E.1_K5.1_C5.1_H5.1_A5.1_[T5A]_[A7T]_F5.1_[T8G]_[T9C]_[A10C]_T5.1] returned a Kd of 645 nM.

The molecule UCUCUUUGUAUUUUUCUCUU (ssRNA) [Ib_S1_P3E.1_K3.1_C3.1_H3.1_A3.1_[A6T]_F3.1_[A8T]_T3.1] came in with a Kd of 26.1 nM. The value for UCUCUUUGUAGUAUAUUCUCUU (ssRNA) [Ic_S1_P5E.1_K5.1_C5.1_H5.1_A5.1_[T5G]_F5.1_[T9A]_[A10T]_T5.1] was 8.21 nM; that for UCUCUUUGUAUGCAGUUCUCUU (ssRNA) [Ic_S1_P5E.1_K5.1_C5.1_H5.1_A5.1_[T6G]_[A7C]_F5.1_[T8A]_[T9G]_[A10T]_T5.1] was 1990 nM. The value for UCUCUUUGUACCAGUGUCUCUU (ssRNA) [Ic_S1_P5E.1_K5.1_C5.1_H5.1_A5.1_[T5C]_[T6C]_F5.1_[T8G]_[A10G]_T5.1] was 470 nM; that for UCUCUUUGUAAGUACGUCUCUU (ssRNA) [Ic_S1_P5E.1_K5.1_C5.1_H5.1_A5.1_[T5A]_[T6G]_[A7T]_F5.1_[T8A]_[T9C]_[A10G]_T5.1] was 2240 nM; that for UCUCUUUGUAACCCAUUCUCUU (ssRNA) [Ic_S1_P5E.1_K5.1_C5.1_H5.1_A5.1_[T5A]_[T6C]_[A7C]_F5.1_[T8C]_[T9A]_[A10T]_T5.1] was 711 nM. On to UCUCUUUGUACACCAUUCUCUU (ssRNA) [Ic_S1_P5E.1_K5.1_C5.1_H5.1_A5.1_[T5C]_[T6A]_[A7C]_F5.1_[T8C]_[T9A]_[A10T]_T5.1], for which the dissociation constant (Kd) stood at 16.1 nM. The value for UCUCUUUGUACGUAAUUCUCUU (ssRNA) [Ic_S1_P5E.1_K5.1_C5.1_H5.1_A5.1_[T5C]_[T6G]_[A7T]_F5.1_[T8A]_[T9A]_[A10T]_T5.1] was 126 nM; that for UCUCUUUGUAUACCACUCUCUU (ssRNA) [Ic_S1_P5E.1_K5.1_C5.1_H5.1_A5.1_[T6A]_[A7C]_F5.1_[T8C]_[T9A]_[A10C]_T5.1] was 20.7 nM. The value for UCUCUUUGUAAUCUGAUCUCUU (ssRNA) [Ic_S1_P5E.1_K5.1_C5.1_H5.1_A5.1_[T5A]_[A7C]_F5.1_[T9G]_T5.1] was 83.4 nM. The value for UCUCUUUGUACCAUACUCUCUU (ssRNA) [Ic_S1_P5E.1_K5.1_C5.1_H5.1_A5.1_[T5C]_[T6C]_F5.1_[T9A]_[A10C]_T5.1] was 1.59 nM; that for UCUCUUUGUAAUUUUCUCUCUU (ssRNA) [Ic_S1_P5E.1_K5.1_C5.1_H5.1_A5.1_[T5A]_[A7T]_F5.1_[A10C]_T5.1] was 29.8 nM. In turn, UCUCUUUGUAUUUCGUUCUCUU (ssRNA) [Ic_S1_P5E.1_K5.1_C5.1_H5.1_A5.1_[A7T]_F5.1_[T8C]_[T9G]_[A10T]_T5.1] gave a dissociation constant (Kd) of 370 nM. Against the preceding molecule, the Kd is about 12-fold higher.

For the molecule UCUCUUUGUACAAUUCUCUCUU (ssRNA) [Ic_S1_P5E.1_K5.1_C5.1_H5.1_A5.1_[T5C]_[T6A]_F5.1_[A10C]_T5.1], the dissociation constant (Kd) turned out to be 12.1 nM. For UCUCUUUGUAUAAAUCUCUU (ssRNA) [Ia_S1_P3E.1_K3.1_C3.1_H3.1_A3.1_F3.1_[T7A]_T3.1] the value was 50.4 nM. The value for UCUCUUUGUACCCUAGUCUCUU (ssRNA) [Ic_S1_P5E.1_K5.1_C5.1_H5.1_A5.1_[T5C]_[T6C]_[A7C]_F5.1_[T9A]_[A10G]_T5.1] was 4.32 nM. The value for UCUCUUUGUAUGUCCAUCUCUU (ssRNA) [Ic_S1_P5E.1_K5.1_C5.1_H5.1_A5.1_[T6G]_[A7T]_F5.1_[T8C]_[T9C]_T5.1] was 363 nM; that for UCUCUUUGUAGCAGCUUCUCUU (ssRNA) [Ic_S1_P5E.1_K5.1_C5.1_H5.1_A5.1_[T5G]_[T6C]_F5.1_[T8G]_[T9C]_[A10T]_T5.1] was over 2300 nM. UCUCUUUGUAGUUAUUUCUCUU (ssRNA) [Ic_S1_P5E.1_K5.1_C5.1_H5.1_A5.1_[T5G]_[A7T]_F5.1_[T8A]_[A10T]_T5.1] had an equilibrium dissociation constant (Kd) of 705 nM.

In turn, UCUCUUUGUAAGUUGUUCUCUU (ssRNA) [Ic_S1_P5E.1_K5.1_C5.1_H5.1_A5.1_[T5A]_[T6G]_[A7T]_F5.1_[T9G]_[A10T]_T5.1] came in with a dissociation constant Kd of 495 nM. Take UCUCUUUGUAUACGGUUCUCUU (ssRNA) [Ic_S1_P5E.1_K5.1_C5.1_H5.1_A5.1_[T6A]_[A7C]_F5.1_[T8G]_[T9G]_[A10T]_T5.1]: the affinity, expressed as Kd, was 90.4 nM. For UCUCUUUGUACACCCCUCUCUU (ssRNA) [Ic_S1_P5E.1_K5.1_C5.1_H5.1_A5.1_[T5C]_[T6A]_[A7C]_F5.1_[T8C]_[T9C]_[A10C]_T5.1], the Kd turned out to be 113 nM. The molecule UCUCUUUGUAAAAUUUUCUCUU (ssRNA) [Ic_S1_P5E.1_K5.1_C5.1_H5.1_A5.1_[T5A]_[T6A]_F5.1_[A10T]_T5.1] yielded a Kd of 23.8 nM. This Kd lies about 4.7-fold lower than the previous one.

Take UCUCUUGGCAUAUAUCUCUU (ssRNA) [Ib_S1_P3E.1_K3.1_C3.1_H3.1_[T1G]_[T3C]_A3.1_F3.1_T3.1]: the dissociation constant (Kd) was over 2300 nM.
